The source of these data is publication PMC5820184 (Proteins, 2017).

What all share (test): crystal structure
The target in series [1] is Snake Atadenovirus 1 LH3 protein (snake adenovirus 1).
Series [2] addresses Sorbitol dehydrogenase (BjSDH) from Bradyrhizobium japonicum (Bradyrhizobium japonicum).
The series “crystal structure” concerns the molecule itself.

The term stoichiometry N denotes the number of molecules, sites or subunits per partner or assembly. The molecule “Snake Atadenovirus 1 LH3 protein (natural protein)” had a stoichiometry N in series [1] of 3.
Take “Sorbitol dehydrogenase (BjSDH) from Bradyrhizobium japonicum (enzyme)”: in series [2], the stoichiometry N was 4.

B1: FliD_(78-405), flagellar cap protein from Pseudomonas aeruginosa PAO1 (domain or fragment)
chain: NEDILKASATQSAVAGTYQIQVNSLATSSKIALQAIADPANAKFNSGTLNISVGDTKLPAITVDSSNNTLAGMRDAINQAGKEAGVSATIITDNSGSRLVLSSTKTGDGKDIKVEVSDDGSGGNTSLSQLAFDPATAPKLSDGAAAGYVTKAANGEITVDGLKRSIASNSVSDVIDGVSFDVKAVTEAGKPITLTVSRDDAGVKDNVKKFVEAYNTLTKFINEQTVVTKVGEDKNPVTGALLGDASVRALVNTMRSELIASNENGSVRNLAALGITTTKDGTLEIDEKKLDKAISADFEGVASYFTGDTGLAKRLGDKMKPYTDAQGI
Turning to B1, in “crystal structure”, the “stoichiometry N” value was found to be 6.
